For this series, the target named is thrombin (UniProt P00734;P00734 328-363;364-622). Nature of the series: BLI.

B1: HD1 (structured_DNA)
DNA: GGTTGGTGTGGTTGG
As for B1, the Kd amounted to 32 ± 4 nM.

Source of the values: doi:10.1101/2025.01.09.632085.
